The source of these data is article PMC6474348.

Data set [1] addresses maltose binding protein (MBP)-batVP35 (Myotis lucifigus). The data set can be described thus: SEC-MALS. For orientation: In gel filtration, larger molecules generally elute earlier.
Data set [2] deals with eVP35 IID (MBP-eVP35 215-240 as printed) (Ebola virus, UniProt Q05127 215-340). The data set can be described thus: filter binding.

With “maltose binding protein (MBP)-batVP35 (natural protein)”, the stoichiometry N (in general, the number of molecules, sites or subunits per partner or assembly) in data set [1] was determined as 4.

B1: 8 bp dsRNA (dsRNA)
RNA 1: CGCAUGCG
RNA 2: CGCAUGCG
As to B1, the binding signal in data set [2] is 1 fraction relative to eVP35.
